# B1: EAL domain of MucR (residues 425–685) (domain or fragment, Pseudomonas aeruginosa PAO1, UniProt Q9I310 425-685, looked up)
# chain: SSMNANAQEQLQLLHDLRQALERRQLVLHYQPKVLAPNGPMIGVEALLRWEHPQHGLITPGQFLPLAEKTGLIVQIGEWVLDEACRQMRLWLDGGHADWNIAVNLSALQFAHAGLVDSVRNALLRHSLEPSHLILEVTESTAMRDADASLVILEQLSAMGVGISIDDFGTGYSSLLYLKRLPASELKIDRGFINELAHDSDDAAIVSAIVALGRTLNLKIVAEGVETEAQQEFLTRLGCNSLQGFLLGRPMPAEQLLASVA
# notes: MucR (PA1727), Pseudomonas aeruginosa PAO1, EAL phosphodiesterase domain, residues 425-685; Cloned into pET-28a through NdeI and HindIII, which would give an N-terminal His6 tag with a thrombin site (surmised); no cleavage of the tag is described; Seen as the 'classic dimer' in the crystal, 2 molecules in the asymmetric unit; also called MucR^EAL; MucR-EAL; source: E. coli BL21 DE3, purified …
# B2: EAL domain of PA3825 (residues 255–517) (domain or fragment, Pseudomonas aeruginosa PAO1, UniProt Q9HXH7 255-517, looked up)
# chain: SRRVASPSSELRRALEANEFIPYYQPLSPGQGGRWIGVEVLMRWRHPREGLIRPDLFIPFAERSGLIVPMTRALMRQVAEDLGGHAGKLEPGFHIGFNISATHCHELALVDDCRELLAAFPPGHITLVLELTERELIESSEVTDRLFDELHALGVKIAIDDFGTGHSSLAYLRKFQVDCLKIDQSFVARIGIDTLSGHILDSIVELSAKLDLDIVAEGVETPEQRDYLAARGVDYLQGYLIGRPMPLESLLSSLTVQEGQGAS
# notes: PA3825, Pseudomonas aeruginosa PAO1, EAL phosphodiesterase domain, residues 255-517; The residue numbers of the results (Glu39, Asp160, Asp161, Glu217, loop 160-170) cannot count on the full-length protein; they seem to count on the crystallised domain or the PDB entries; Cloned into the popinF vector; Seen as a 'closed dimer' in the crystal; also called PA3825^EAL; PA3825-EAL; source: E. coli …
# Experiments:
# [1] = molecular target: the molecule itself; test: crystal structure; MucR^EAL with c-di-GMP/Mg^2+, P2_(1), 2 molecules/AU, 2.27 Å; Morpheus Buffer System 1 pH 6.5, 21 °C
# [2] = molecular target: the molecule itself; test: crystal structure; PA3825^EAL metal-free apo, tetragonal crystal P4_(3)2_(1)2, 1 molecule/AU, 1.60 Å
protein,measurement,setting,value
B1,binding result,[1],binds
B2,binding result,[2],binds
